This is an account of results in paper PMC3810028.

Assay [1] concerns the target HIV-1 YU-2 envelope gp120 with a C-terminal hexa-histidine tag (HIV-1 (YU-2 strain)) (UniProt P35961). The experiment in a line: ITC. Background: ITC needs no label: the signal is the heat of the interaction.
The target is the same in assay [2]. The experiment in a line: SPR. (In general: Surface plasmon resonance follows binding to a sensor surface in real time, without labels.)
For assay [3] the target is unchanged. Put plainly: SPR. The source holds these as a separate data set.
For assay [4] the target is unchanged.

pIC50, pKd: −log10 of the molar value. Read-outs that look alike come from different tables or passages of the source.

For “peptide triazole KR-41 (UM-24 with Trp 6 replaced by L-3-benzothienylalanine, Bta)”, in assay [1], the dH is -14.9 kcalmol^−1. Further, in assay [2], the pIC50 (usually the IC50 on a negative log10 scale, so that one unit is a factor of ten) was 7.29.

For “peptide triazole KR-42 (DCit-DAsn-DAsn-DIle-LFtP-LBta-DSer-NH2)”, in assay [1], the pKd (usually the negative decadic logarithm of the Kd, by convention in mol/L) was 6.55 and the dH is -14.6 kcalmol^−1. This substance gave a pIC50 in assay [3] of 6.93. This substance had a pIC50 in assay [2] of 6.68.

“peptide triazole UM-24 (Cit-N-N-I-X-W-S-CONH2)”: in assay [4], the EC50 of inhibition of single-round infection by HIV-1BaL (Env of BaL, not YU-2) was 6200 nM. Moreover, the pKd in assay [1] is 7.68. Also, in assay [1], the dH is -14.1 kcalmol^−1. For the same substance, the pIC50 in assay [3] was 7.35; in assay [2], 7.15.
